{"source": "patent EP4455161A1", "about": "(ONO Pharmaceutical Co., Ltd., dated 2024)", "binders": {"B1": {"name": "NI-504.3E7 (antibody, human IgG1, V domains shown)", "VH": "EVQLVETGGGFVQPGGSLQLSCAVSGFPYSGTSFHWVRQVSGKGLEWIGRIRSKSDNYETSYTESLKGRFIVSRDDSKNMVRLHLYSLRTEDTALYYCTTGIIVVDTSYLDHWGRGTLVTVSS", "VL": "SYELTQPPSASVSPGQTARITCSGAALPKKYAYWYQLKSGQAPVLVIYEDTKRPSGIPERFSGSSSGTLATLTINGALVEDEADYYCYSTDSSGDVWVFGGGTKLTVL", "notes": "VH_3E7 + VL_3E7"}}, "key": {"[1]": {"biological_target": "T1, recombinant human full length CRMP1 (human, UniProt Q14194 1-572)", "T1 construct": "mature", "T1 sequence (Q14194 whole entry)": "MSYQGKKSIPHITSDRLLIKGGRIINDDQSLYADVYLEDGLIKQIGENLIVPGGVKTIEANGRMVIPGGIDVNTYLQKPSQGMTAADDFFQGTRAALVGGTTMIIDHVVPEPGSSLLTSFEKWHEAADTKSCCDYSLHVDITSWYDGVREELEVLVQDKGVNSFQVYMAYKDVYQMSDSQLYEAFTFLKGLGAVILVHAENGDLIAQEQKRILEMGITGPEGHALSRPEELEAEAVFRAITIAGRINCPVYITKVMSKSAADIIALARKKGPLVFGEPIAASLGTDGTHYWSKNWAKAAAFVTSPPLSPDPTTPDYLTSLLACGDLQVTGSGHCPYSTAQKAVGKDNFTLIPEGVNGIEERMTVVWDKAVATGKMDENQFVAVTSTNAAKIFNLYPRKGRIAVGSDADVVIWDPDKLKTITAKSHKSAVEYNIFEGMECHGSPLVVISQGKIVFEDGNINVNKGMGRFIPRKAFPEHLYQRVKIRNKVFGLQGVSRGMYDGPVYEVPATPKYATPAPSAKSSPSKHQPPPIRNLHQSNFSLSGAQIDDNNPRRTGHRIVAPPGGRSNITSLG", "test": "direct ELISA, recombinant human CRMP1-5 coated at 5 µg/mL"}, "[2]": {"biological_target": "T2, Peptide 4152960: …", "T2 construct": "also called non-phosphorylated CRMP2 peptide", "test": "direct ELISA on coated peptide (Fig. 5)"}, "[3]": {"biological_target": "T3, Peptide 4152961: VCEVSV(p)T509… (phosphothreonine at T509 (CRMP2 numbering))", "T3 construct": "also called CRMP2 peptide with phosphorylation at T509", "test": "direct ELISA on coated peptide (Fig. 5)"}, "[4]": {"biological_target": "T4, Peptide 4152963: …(p)S522PAKQQA (phosphoserine at S522 (CRMP2 numbering))", "T4 construct": "also called CRMP2 peptide with phosphorylation at S522", "test": "direct ELISA on coated peptide (Fig. 5)"}, "[5]": {"biological_target": "T5, CRMP2 peptide 128 (TPKTVTPASSAKTSP) (human)", "T5 construct": "15-mer spotted on a cellulose membrane array", "T5 peptide": "TPKTVTPASSAKTSP", "test": "overlapping peptide array"}, "[6]": {"biological_target": "T6, CRMP2 peptide 129 (VTPASSAKTSPAKQQ) (human)", "T6 construct": "15-mer spotted on a cellulose membrane array", "T6 peptide": "VTPASSAKTSPAKQQ", "test": "overlapping peptide array"}, "[7]": {"biological_target": "T7, pCRMP2 peptide H-TVTPASSAKT(pS)PAKQQAPPVRC-NH2 (phosphoserine at S522 (CRMP2 numbering); C-terminal amide)", "T7 construct": "also called pCRMP2 peptide containing a single S522 phospho-site", "T7 peptide": "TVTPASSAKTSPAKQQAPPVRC", "test": "ELISA"}, "[8]": {"biological_target": "T8, CRMP2 peptide H-EVSVTPKTVTPASSAKTSPAKQQC-NH2 (C-terminal amide)", "T8 peptide": "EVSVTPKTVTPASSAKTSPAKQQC", "test": "ELISA"}, "[9]": {"biological_target": "T9, pCRMP2 peptide H-EVSV(pT)PKTV(pT)PASSAKT(pS)PAKQQC-NH2 (phosphothreonine at T509 and T514, phosphoserine at S522 (CRMP2 numbering); C-terminal amide)", "T9 construct": "also called pCRMP2 peptide containing three phospho-sites T509, T514 and S522", "T9 peptide": "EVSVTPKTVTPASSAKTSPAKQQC", "test": "ELISA"}, "[10]": {"biological_target": "T10, CRMP2 peptide TVTPASSAKTSPAKQQAPPVRC-NH2 (C-terminal amide)", "T10 peptide": "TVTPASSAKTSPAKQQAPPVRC", "test": "ELISA"}}, "data": [{"binder": "B1", "values": [{"measurement": "EC50", "setting": "[1]", "result": 69, "unit": "nM"}, {"measurement": "binding result", "setting": "[2]", "result": "binds"}, {"measurement": "binding result", "setting": "[3]", "result": "binds"}, {"measurement": "binding result", "setting": "[4]", "result": "binds"}, {"measurement": "binding result", "setting": "[5]", "result": "binds"}, {"measurement": "binding result", "setting": "[6]", "result": "binds"}, {"measurement": "binding result", "setting": "[7]", "result": "binds"}, {"measurement": "binding result", "setting": "[8]", "result": "binds"}, {"measurement": "binding result", "setting": "[9]", "result": "binds"}, {"measurement": "binding result", "setting": "[10]", "result": "binds"}]}]}
